# Data from patent US20250206828A1, “ANTI-ADENOSINE RECEPTOR (A2aR) ANTIBODIES AND THE USE THEREOF” (Adept Therapeutics Inc., priority 2022, published 2025).
# Key:
# [1] = target: T1, human A2aR-expressing CHO cells (Homo sapiens, UniProt P29274); assay: pH-sensitive dye (Zenon pHrodo iFL RED) based internalization assay; type: cell-based; conditions: 24 hours
# T1 construct: expressed in transfected cells; host or cells: CHO
# Source text: The Invitrogen™ Zenon™ pHrodo™ iFL RED human IgG Labeling Reagents (Cat. Z25612) Z25612) is low-pH sensitive dye and was used to determine the internalizing properties of the exemplary anti-A2aR antibodies following manufacture's instruction. The internalization of antibodies coupled with the Zenon™ pHrodo™ iFL RED human IgG Labeling reagents increase the fluorescence signal at low pH intracellular compartment in a cell, providing a method for visualizing internalization under fluorescent microscopy.
# Twenty-five microliters (25 μL) of 4× working solution of Zenon™ pHrodo™ iFL IgG Labeling Reagent were also prepared in freestyle CHO expression medium and then added to each well of a 96-well plate containing antibodies. The solutions in the 96-well plate were mixed and incubated for 5 minutes at room temperature to allow the labeling complexes to form. Afterwards, fifty microliters (50 μl) of 2×10^6/ml human A2aR-expressing CHO cells were added to each well containing labeled antibodies. Cells were then incubated with the labeling complex for 24 hours under standard cell culture conditions. Cells were analyzed under immunofluorescent microscope (Invitrogen EVOS cell imaging system M5000) to visualize the internalization of antibodies by cells. Internalization of antibody was imaged using EVOS imaging systems (Invitrogen).
# [2] = target: human A2aR-expressing HEK293 cells (Homo sapiens, UniProt P29274); assay: Flow cytometry based internalization assay; type: cell-based; conditions: 1, 0.5 and 0.25 μg/ml, 1, 2 and 4 hours at 37° C.
# Sequence of human A2aR-expressing HEK293 cells (P29274 whole entry): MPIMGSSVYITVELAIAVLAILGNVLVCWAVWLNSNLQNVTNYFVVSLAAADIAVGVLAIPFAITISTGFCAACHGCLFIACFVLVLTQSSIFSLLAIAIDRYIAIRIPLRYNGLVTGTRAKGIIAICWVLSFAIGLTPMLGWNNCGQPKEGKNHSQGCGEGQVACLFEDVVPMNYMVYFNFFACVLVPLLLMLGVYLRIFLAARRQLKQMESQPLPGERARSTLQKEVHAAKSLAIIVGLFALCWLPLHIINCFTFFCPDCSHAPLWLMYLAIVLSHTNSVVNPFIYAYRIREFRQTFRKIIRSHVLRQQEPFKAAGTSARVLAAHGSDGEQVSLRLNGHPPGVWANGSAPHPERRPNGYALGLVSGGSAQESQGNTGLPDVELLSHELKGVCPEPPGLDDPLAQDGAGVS
# Procedure: 2×10^5/well freshly cultured human A2aR-expressing HEK293 cells (BPS Bioscience) were incubated with antibodies to be tested at indicated concentration (1, 0.5 and 0.25 μg/ml) on ice for 45 minutes. Parental 3F6 were used as positive control. After wash with FACS buffer, samples were split into 4 sets. One set of samples were maintained on ice. The other three sets of samples were left in 37° C., 5% CO2 incubator for further incubation for 1, 2 and 4 hours. All four sets of samples were followed by staining with PE-conjugated goat-anti-human Fc antibody (1:400, Jackson Immuno Research, Cat. 109-116-098) for 30 minutes, and then washed with cold FACS buffer, cells were then stained with 1:100 diluted 7−AAD (Biolegend) and then fixed with 2% of paraformaldehyde (diluted from 10% paraformaldehyde (MilliporeSigma, Cat. R04586)). All samples were analyzed on Guava 11HT or 5HT (Luminex). The mean fluorescence intensity (MFI) was obtained and data was analyzed using Flowjo software. Internalization rate was calculated as: […]
# [3] = target: T2, human A2aR on the cell surface of human PBMCs (Homo sapiens, UniProt P29274); assay: Binding of anti-A2aR antibodies to human PBMC subsets (CD4 T, CD8 T, NK, NKT cells; FACS); conditions: for binding to human T cells (CD4, CD8), NK cells and NKT cells: human PBMCs, FACS
# T2 construct: host or cells: human PBMCs (CD4 T, CD8 T, NK, NKT subsets)
# T2 sequence (P29274 whole entry): as above
# Procedure: (§1) Human and cynomolgus PBMCs were purchased from Cytologics LLC (San Diego, CA) and iQ Biosciences (Berkeley, CA), respectively. 10^6 human and/or cynomolgus PBMCs in 100 μl FACS buffer (1×DPBS, 2% FBS) were incubated with anti-A2aR antibodies at 4° C. for 30 minutes. After wash, samples were stained with PE-conjugated goat-anti-human Fc antibody (1:400, Jackson ImmunoResearch Labs, Cat. 109-116-098) and other surface markers using cynomolgus cross-reactive APC/cy7-anti-CD3 (BD Bioscience, Cat. 557757), BV421-anti-CD4 (Biolegend, Cat. 317433), BV650-anti-CD8 (Biolegend, Cat. 301042) and BV711-anti-CD56 (BD Bioscience, Cat. 742661) for 30 minutes, and Zombie Green fixable Viability dye (Biolegend, Cat. 423111) were used according to manufacturer's instruction to define live immune cell subsets. After wash with FACS buffer, cells were analyzed on FACSAria (BD). Data was analyzed using Flowjo (Becton Dickinson).
# [4] = system: cynomolgus A2aR on the cell surface of cynomolgus PBMCs; assay: Binding of anti-A2aR antibodies to cynomolgus PBMC subsets (CD4 T, CD8 T, NK, NKT cells; FACS); conditions: for binding (cross-reactivity) to cynomolgus T cells (CD4+, CD8+), NK cells and NKT cells: cynomolgus PBMCs, FACS
# Sequence of cynomolgus A2aR on the cell surface of cynomolgus PBMCs (as listed by the source): as the sequence (P29274 whole entry) above, with S263N, A371T, G379S, D407G counted along it
# Procedure: as §1
# [5] = system: human PBMCs (CD4 and CD8 T cells); assay: Restoration of CD25 and CD69 activation markers on NECA-suppressed CD4 and CD8 T cells; type: cell-based; conditions: test substance 1 μg/ml
# Procedure: Two hundred thousand (2×10^5) human peripheral blood mononuclear cells (PBMCs) human PBMC in complete IMDM medium were aliquoted into each well in a 96-well plate and the cells in the 96-well plate were pre-incubated with antibodies or small molecule inhibitors at indicated concentration for 90 minutes, followed by addition of T cell activator anti-CD3/28 dynabeads (Gibco, Cat #11132D) at ratio of 1:4 (Beads: PBMC, v/v) and NECA (DiscoverX, Cat #92-1191, final concentration […]). Cells were cultured in an incubator at 37° C., 5% CO2 for 24 hours. Cells were then collected and stimulated with anti-CD3/28 dynabeads in the presence of GolgiPlug™ Protein Transport Inhibitor (BD Biosciences, Cat #555028) according to manufacturer's manual for 4 hours. Thereafter, cells were incubated with human TruStain FcX block (Biolegend, Cat #422302) and True-Stain monocyte blocker (Biolegend, Cat #426103) for 15 minutes according the manufacturer's manual, and cells were then stained with surface markers PE-anti-CD4 (Biolegend, Cat #300550), PerCP-cy5.5-anti-CD8 (Biolegend, Cat #301032), APC/cy7-anti-CD3 (Biolegend, Cat #300426) and PE/cy7-anti-CD56 (Biolegend, Cat #362509), PE/cy7-anti-CD56 (Biolegend, Cat #362509), BV711-anti-CD25 (Biolegend, Cat #302636) and BV605-anti-CD69 (Biolegend, Cat #31938 After wash with FACS buffer, cells were stained with BV421-anti-IFN-γ (BD Bioscience, Cat #562988) and APC anti-IL-2 (BD Bioscience, cat #551383) using intracellular cytokine staining kit (BD Biosciences, cat #555028) following manufacturer's instruction. Stained samples were analyzed on FACSAria III machine. Data were analyzed using Flowjo software.
# T1 sequence (P29274 whole entry): as the sequence (P29274 whole entry) above
Molecule,"induction of internalization (pHrodo fluorescence microscopy, FIG. 3) [1]","internalization upon binding to cell surface A2aR (percentage of internalization, FIG. 2) [2]",% of A2aR+ CD8+ T cells ([3]; human 1 PBMC),% of A2aR+ NK cells ([3]; human 1 PBMC),% of A2aR+ NKT cells ([3]; human 1 PBMC),% of A2aR+ CD8+ T cells ([3]; human 2 PBMC),% of A2aR+ NK cells ([3]; human 2 PBMC),% of A2aR+ NKT cells ([3]; human 2 PBMC),"binding to human T cells (CD4, CD8), NK cells and NKT cells [3]",% of A2aR+ CD4+ T cells ([4]; Cynomolgus 1 PBMC),% of A2aR+ CD8+ T cells ([4]; Cynomolgus 1 PBMC),% of A2aR+ NK cells ([4]; Cynomolgus 1 PBMC),% of A2aR+ NKT cells ([4]; Cynomolgus 1 PBMC),% of A2aR+ CD4+ T cells ([4]; Cynomolgus 2 PBMC),% of A2aR+ CD8+ T cells ([4]; Cynomolgus 2 PBMC),% of A2aR+ NK cells ([4]; Cynomolgus 2 PBMC),% of A2aR+ NKT cells ([4]; Cynomolgus 2 PBMC),"binding (cross-reactivity) to cynomolgus T cells (CD4+, CD8+), NK cells and NKT cells [4]","% of cells CD25+, CD4 T cells [5]","% of cells CD25+, CD8 T cells [5]",other results
"Hu3F6-H3/Hu3F6-L5: humanized anti-A2aR IgG1 FES antibody; HCVR SEQ ID NO:60, LCVR SEQ ID NO:80 (antibody, V domains shown) VH: EVQLVQSGAEVKKPGASVKVSCKTSGFAFTSYWMNWVRQAPGQGLEWIGRIDPSDSEAHYHHKFWGRATLTVDTSSSTVYMELSSLRSEDTAVYYCLRSLYGKGDYWGHGTTVTVSS VL: DVVMTQTPLSLSVTPGQPASISCRSSQSLVHRNGNTYLEWYLQKPGQSPQLLIYKVSNRFSGVPDRFSGSGSGTDFTLKISRVEAEDVGVYYCYQGSHVPLTFGGGTKVEIK",internalization can be induced,induce internalization upon binding to cell surface A2aR,0.04%,0.69%,0.46%,0.04%,0.75%,0.55%,bound to various human and cynomolgus CD4+ and CD8+ T cells,1.65%,0.05%,6.52%,1.06%,1.20%,0.11%,2.07%,0.45%,bound to various human and cynomolgus CD4+ and CD8+ T cells,61.5%,36%,"% of A2aR+ CD4+ T cells ([3]; human 1 PBMC): 0.43%; % of A2aR+ CD4+ T cells ([3]; human 2 PBMC): 0.44%; % of cells CD69+, CD4 T cells [5]: 57.9%; % of cells CD69+, CD8 T cells [5]: 54.5%"
"Hu3F6-H5/Hu3F6-L5: humanized anti-A2aR IgG1 FES antibody; HCVR SEQ ID NO:62, LCVR SEQ ID NO:80 (antibody, V domains shown) VH: EVQLVQSGAEVKKPGASVKVSCKTSGFAFTSYWMNWVRQAPGQGLEWIGRIDPSDSEAHYAHKFWGRATLTVDKSSSTVYMELSSLRSEDTAVYYCLRSLYGKGDYWGHGTTVTVSS VL: DVVMTQTPLSLSVTPGQPASISCRSSQSLVHRNGNTYLEWYLQKPGQSPQLLIYKVSNRFSGVPDRFSGSGSGTDFTLKISRVEAEDVGVYYCYQGSHVPLTFGGGTKVEIK",internalization can be induced,induce internalization upon binding to cell surface A2aR,0.05%,0.66%,0.42%,0.03%,0.62%,0.48%,bound to various human and cynomolgus CD4+ and CD8+ T cells,4.76%,0.15%,5.71%,4.14%,10.6%,0.41%,2.92%,4.28%,bound to various human and cynomolgus CD4+ and CD8+ T cells,62.5%,35.8%,"% of cells CD69+, CD4 T cells [5]: 58.1%; % of cells CD69+, CD8 T cells [5]: 56.1%"
